Experimental data as given in patent US20110177064A1, “Compositions and Methods for Treatment of Ovarian Cancer” (priority 2010, published 2011).
Where “and” joins values, the source holds several entries; their conditions need not be identical. Equal entries are not always repeated.

Key:
[1] = test system: COLO 720E human ovarian carcinoma xenografts; assay: Low-dose IMGN901 combination therapy of established subcutaneous COLO 720E xenografts; type: in vivo, mice; conditions: single agent IMGN901 11.4 mg/kg qw×3
Protocol: (§1) Mice were inoculated with human ovarian cancer cell lines and allowed to become established (average tumor size of about 100 mm^3) prior to treatment. Conjugate dosing is described based on DM1 concentration. Efficacy is reported as both the % of tumor growth for treated vs. control (% T/C) and log cell kill (LCK) determined from the tumor doubling time and the tumor growth delay due to the treatment.
The anti-tumor effect of reduced doses of IMGN901 and paclitaxel plus carboplatin was evaluated in established subcutaneous COLO 720E xenografts. When the tumors reached about 100 mm^3 in size (14 days after tumor cell inoculation), the mice were randomly divided into groups of 6 animals each based on tumor volume. Mice were treated with the single agent IMGN901 at a dose of 11.4 mg/kg (qw×3) or the chemotherapeutic combination paclitaxel/carboplatin at either a high-dose (paclitaxel 20 mg/kg, qw×3/carboplatin, 100 mg/kg ip, single injection) or a low-dose (paclitaxel 10 mg/kg, qw×3/carboplatin, 100 mg/kg ip, single injection).

[2] = test system: OVCAR-3 human ovarian carcinoma xenografts; assay: Anti-tumor effect in established subcutaneous OVCAR-3 ovarian carcinoma xenografts; type: in vivo, SCID mice; design: key to activity (NCI standards): Percent T/C values less than or equal to 42% and/or LCK values of 0.5 or greater are considered active; percent T/C values less than 10% are considered highly active
Protocol: as §1
The anti-tumor effect of IMGN901 was evaluated in an established subcutaneous xenograft model of ovarian carcinoma. SCID mice were inoculated with OVCAR-3 ovarian carcinoma cells (1×10^7 cells/animal) injected subcutaneously into the right flank. When the tumors reached about 100 mm^3 in size (24 days after tumor cell inoculation), the mice were randomly divided into three groups (6 animals per group). Mice were treated with the single agent IMGN901 at 6.5 mg/kg and 13 mg/kg, respectively, administered intravenously once weekly for three weeks (day 24, 31, […]). A control group of animals received PBS administered intravenously at the same schedule. Tumor growth was monitored by measuring tumor size twice per week. Tumor size was calculated with the formula: length×width×height×½.

[3] = test system: COLO 720E human ovarian carcinoma xenografts; assay: Combination therapy of established subcutaneous COLO 720E xenografts; type: in vivo, Athymic nude mice; design: key to activity (NCI standards): Percent T/C values less than or equal to 42% and/or LCK values of 0.5 or greater are considered active; percent T/C values less than 10% are considered highly active
Excerpt: as §1
The anti-tumor effect of a combination of huN901-DM1 and paclitaxel plus carboplatin was evaluated in an established subcutaneous xenograft model of ovarian cancer. Athymic nude mice were inoculated with COLO 720E human ovarian carcinoma cells (1×10^7 cells/animal) injected subcutaneously into the right flank. When the tumors reached about 80 mm^3 in size (10 days after tumor cell inoculation), the mice were randomly divided into six groups (6 animals per group). Mice were treated with the single agent IMGN901 at a dose of 13 mg/kg once weekly for three weeks (day 10, 17 and 24 post tumor cell inoculation) administered intravenously. Two additional groups of mice were treated with the combination chemotherapy regimen paclitaxel/carboplatin at two dose levels: a high-dose group of paclitaxel (20 mg/kg iv, weekly for 3 weeks)/carboplatin (100 mg/kg ip, single injection) and a low-dose group of paclitaxel (10 mg/kg iv, weekly for 3 weeks)/carboplatin (100 mg/kg ip, single injection). Two additional groups were treated with the combination of IMGN901 and either high-dose or low-dose paclitaxel/carboplatin with the same doses and routes of administration as for individual treatments. Tumor growth was monitored by measuring tumor size twice per week. Tumor size was calculated with the formula: length×width×height×½.

[4] = test system: COLO 720E human ovarian carcinoma xenografts; assay: Dose-response anti-tumor activity in established subcutaneous COLO 720E xenografts; type: in vivo, SCID mice; design: key to activity (NCI standards): Percent T/C values less than or equal to 42% and/or LCK values of 0.5 or greater are considered active; percent T/C values less than 10% are considered highly active; conditions: for complete regressions (CR) / partial regressions (PR) / mice remaining tumor free at the end of the study: 6 mice; for mice remaining tumor free at the end of the study: 119 days
Protocol: as §1
The anti-tumor effect of IMGN901 was evaluated in an established subcutaneous xenograft model of ovarian carcinoma. SCID mice were inoculated with COLO 720E ovarian carcinoma cells (1×10^7 cells/animal) injected subcutaneously into the right flank. (The COLO 720E human ovarian adenocarcinoma cell line was obtained from the European Collection of Cell Cultures (ECACC, catalog no. 93072111).) When the tumors reached about 100 mm^3 in size (10 days after tumor cell inoculation), the mice were randomly divided into four groups (6 animals per group). Mice were treated with the single agent IMGN901 at 6, 12 and 24 mg/kg, respectively, administered intravenously once weekly for three weeks (day 10, 17 and 24). A control group of animals received PBS administered intravenously at the same schedule. Tumor growth was monitored by measuring tumor size twice per week. Tumor size was calculated with the formula: length×width×height×½.

[5] = IMGN901 13 mg/kg iv once weekly for three weeks
[6] = single-agent IMGN901 13 mg/kg iv once weekly for three weeks
[7] = 24 mg/kg iv once weekly for three weeks

B1: IMGN901 (conjugate, chains of the INN, looked up)
VH: QVQLVESGGGVVQPGRSLRLSCAASGFTFSSFGMHWVRQAPGKGLEWVAYISSGSFTIYYADSVKGRFTISRDNSKNTLYLQMNSLRAEDTAVYYCARMRKGYAMDYWGQGTLVTVSS
VL: DVVMTQSPLSLPVTLGQPASISCRSSQIIIHSDGNTYLEWFQQRPGQSPRRLIYKVSNRFSGVPDRFSGSGSGTDFTLKISRVEAEDVGVYYCFQGSHVPHTFGQGTKVEIK
modifications: mertansine (DM1) conjugate
[1]
  Response: inactive
  T/C: 62%
[1]; 11.4 mg/kg
  CR: no partial (PR) or complete regressions (CR) and 0/6
  PR: no partial (PR) or complete regressions (CR) and 1/6
[2]; IMGN901 6.5 mg/kg iv once weekly for three weeks
  activity (NCI standards): inactive
[2]; [5]
  activity (NCI standards): active
  tumor growth inhibition (T/C): 21%
[3]; [6]
  T/C: 32%
  activity (NCI standards): active
  complete regression: one of six
  partial tumor regressions: Two of six
[3]; single-agent IMGN901 13 mg/kg, end of study day 123
  tumor-free survivors: no tumor-free survivors
[4]; 6 mg/kg iv once weekly for three weeks
  activity (NCI standards): inactive
[4]; 12 mg/kg iv weekly for 3 weeks
  activity (NCI standards): active
  mice exhibiting tumor regressions: Four of 6
  tumor growth inhibition value (T/C): 18%
  complete regressions (CR): 2
  partial regressions (PR): 4
  mice remaining tumor free at the end of the study: one
[4]; [7]
  activity (NCI standards): highly active (percent T/C values less than 10% are considered highly active)
  mice exhibiting tumor regressions: six
  tumor growth inhibition value (T/C): 0%
  complete regressions (CR): 6
  partial regressions (PR): 6
  mice remaining tumor free at the end of the study: four
